Test results published in patent US20060110800A1 (ZymoGenetics, published 2006).

Biological target: T1, 125I-IL-13 (UniProt P35225 35-146, limits assumed, 125I label (site not stated))
T1 construct: also called labeled IL-13; interleukin 13
Experiment: saturation binding analysis of 125I-IL-13 on BHK cells expressing Zcytor2
Description: The binding of ¹²⁵I-IL-13 to wild-type and Zcytor2-transfected BHK, TF-1, and BaF3 cells was determined. BHK cells were assayed in 6-well culture plates. TF-1 and BaF3 cells were assayed in microcentrifuge tubes. Cells were combined with 500 μl of either solution A (15 ml of binding buffer [RPMI containing 20 mM Tris pH7.4, 0.05% NaN₃, and 3 mg/ml BSA] plus 263 μl of ¹²⁵I-IL-13 [5.7×10⁷ cpm/ml]) or solution B (solution A containing 15 μl of cold 25 μg/ml IL-13). After a 2-hour incubation, cells were washed three times with 500 μl binding buffer and lysed in 500 μl of 400 mM NaOH. Lysates were transferred to tubes for gamma counting.

T1 sequence (P35225 35-146 limits assumed): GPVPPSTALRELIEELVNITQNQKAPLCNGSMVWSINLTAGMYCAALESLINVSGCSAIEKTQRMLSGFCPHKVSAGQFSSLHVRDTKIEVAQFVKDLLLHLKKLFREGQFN

B1: human Zcytor2 receptor expressed on transfected BHK cells (receptor)
chain: SSDTEIKVNPPQDFEIVDPGYLGYLYLQWQPPLSLDHFKEYTVEYELKYRNIGSETWKTIITKNLHYKDGFDLNKGIEAKIHTLLPWQCTNGSEVQSSWAETTYWISPQGIPETKVQDMDCVYYNWQYLLCSWKPGIGVLLDTNYNLFYWYEGLDLALQCVDYIKADGQNIGCRFPYLEASDYKDFYICVNGSSENKPIRSSYFTFQLQNIVKPLPPVYLTFTRESSCEIKLKWGIPLGPIPARCFDYEIEIREDDTTLVTATVENETYTLKTTNETRQLCFVVRSKVNIYCSDDGIWSEWSDKQCWEGEDLSKKTLLRFWLPFGFILILVIFVTGLLLRKPNTYPKMIPEFFCDT
notes: also called BHK/Zcytor2 cells; Zcytor2-transfected BHK
Kd: 0.59 nM
